This passage reports FRET efficiency and stoichiometry N results from publication PMC5144075.

The target of test [1] is TMEM16A fused to a fluorescent protein (eGFP-TMEM16A, TMEM16A-eGFP, TMEM16A-mCherry). Nature of the test: FRET or BRET; acceptor photobleaching FRET, confocal microscope, HEK-293 cells co-transfected with eGFP-TMEM16A (donor) and TMEM16A-mCherry (acceptor): NT-CT configuration. For orientation: In BRET a luciferase serves as donor, and the signal depends on an acceptor being close.

Test [2] concerns the target 16A-cys(i)-less R494C/K921C. In words: cross-linking; harvested transfected HEK-293 cells in PBS with 300 uM 1,5-pentanediyl bismethanethiosulfonate, 15 min, room temperature; stopped with Laemmli buffer or reversed with 33 mM DTT; SDS-PAGE and Western blot with SP31 antibody. Background: Immunoblotting shows a protein as a band on a membrane.
In test [3] the target is 16A-cys(i)-less (TMEM16A with all cysteines of the cytosolic portion replaced with serines). The test is described as above.

TMEM16A fused to a fluorescent protein (eGFP-TMEM16A, TMEM16A-eGFP, TMEM16A-mCherry), sequence (Q5XXA6 whole entry, the tested form may be a part): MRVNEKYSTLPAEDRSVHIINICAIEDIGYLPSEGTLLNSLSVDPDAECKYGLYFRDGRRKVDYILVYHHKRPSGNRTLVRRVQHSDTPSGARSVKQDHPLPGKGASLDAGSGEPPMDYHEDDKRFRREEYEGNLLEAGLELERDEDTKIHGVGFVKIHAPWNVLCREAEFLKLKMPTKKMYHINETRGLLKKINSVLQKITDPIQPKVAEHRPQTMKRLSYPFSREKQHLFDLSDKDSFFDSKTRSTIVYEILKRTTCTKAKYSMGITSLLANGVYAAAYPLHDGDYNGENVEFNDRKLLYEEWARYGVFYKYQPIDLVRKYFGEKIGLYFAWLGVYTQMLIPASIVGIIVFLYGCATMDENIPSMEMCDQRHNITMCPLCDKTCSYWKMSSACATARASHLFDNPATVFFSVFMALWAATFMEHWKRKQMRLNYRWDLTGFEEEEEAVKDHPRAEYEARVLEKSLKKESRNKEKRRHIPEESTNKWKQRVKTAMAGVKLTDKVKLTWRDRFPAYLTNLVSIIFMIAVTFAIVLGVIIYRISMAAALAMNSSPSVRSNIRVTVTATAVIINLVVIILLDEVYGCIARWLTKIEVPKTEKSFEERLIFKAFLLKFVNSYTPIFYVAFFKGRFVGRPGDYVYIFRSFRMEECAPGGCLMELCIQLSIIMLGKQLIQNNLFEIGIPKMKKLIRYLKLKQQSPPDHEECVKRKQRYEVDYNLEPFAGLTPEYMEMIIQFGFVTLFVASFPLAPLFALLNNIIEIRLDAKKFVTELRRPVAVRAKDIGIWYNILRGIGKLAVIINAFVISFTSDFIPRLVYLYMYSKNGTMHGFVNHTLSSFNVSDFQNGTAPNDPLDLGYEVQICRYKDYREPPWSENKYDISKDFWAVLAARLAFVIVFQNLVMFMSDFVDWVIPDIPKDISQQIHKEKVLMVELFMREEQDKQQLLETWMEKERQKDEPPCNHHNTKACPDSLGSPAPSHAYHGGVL

For “TMEM16A fused to a fluorescent protein (eGFP-TMEM16A, TMEM16A-eGFP, TMEM16A-mCherry) (natural protein)”, the FRET efficiency in test [1] was 7.44%.
Consider “16A-cys(i)-less R494C/K921C (natural protein)”, for which, in test [2], the stoichiometry N amounted to 2.
Turning to “16A-cys(i)-less (TMEM16A with all cysteines of the cytosolic portion replaced with serines) (natural protein)”, the stoichiometry N in test [3] came to 2.

Broadly, the stoichiometry N is a count of units in the complex or per binding partner.
